Measurements from paper PMC9116394, “Triple-negative and triple-positive breast cancer cells reciprocally control their growth and migration via the S100A4 pathway” (Cell Adhesion & Migration, 2022).

Molecular target: the molecule itself
Assay: western blot of cell extracts; extracts of TNBC (MDA-MB-231) cells incubated in TPBC-medium, TNBC-medium or S-medium; detected with a polyclonal antibody to S100A4; gel conditions not stated

B1: S100A4 protein (natural protein)
chain: not shown
notes: S100A4 (Mts1), endogenous in the human triple-negative breast carcinoma cell line MDA-MB-231; Monomeric, dimeric and tetrameric forms were told apart as bands on a western blot of cell extracts; also called Mts1; source: endogenous, MDA-MB-231 (TNBC) cell extract
stoichiometry N: 4
